Results published in article PMC2848763, “The Puf family of RNA-binding proteins in plants: phylogeny, structural modeling, activity and subcellular localization”.

What was measured:
[1] = biological target: T1, GST-AtPum2 PUM-HD (Arabidopsis thaliana, UniProt Q9ZW06 614-963); assay: EMSA; estimated from free RNA; complex unstable, no accurate Kd; 10 mM HEPES pH 7.4, 1 mM EDTA, 50 mM KCl, 1 mM DTT, 0.01% BSA, 0.01% Tween 20; room temperature 1 h; 6% native gel run at 4 C; conditions: protein: recombinant; tags: N-terminal GST (pGEX-6P-1); label: 5' 32P; single strand, 19 nt
T1 sequence: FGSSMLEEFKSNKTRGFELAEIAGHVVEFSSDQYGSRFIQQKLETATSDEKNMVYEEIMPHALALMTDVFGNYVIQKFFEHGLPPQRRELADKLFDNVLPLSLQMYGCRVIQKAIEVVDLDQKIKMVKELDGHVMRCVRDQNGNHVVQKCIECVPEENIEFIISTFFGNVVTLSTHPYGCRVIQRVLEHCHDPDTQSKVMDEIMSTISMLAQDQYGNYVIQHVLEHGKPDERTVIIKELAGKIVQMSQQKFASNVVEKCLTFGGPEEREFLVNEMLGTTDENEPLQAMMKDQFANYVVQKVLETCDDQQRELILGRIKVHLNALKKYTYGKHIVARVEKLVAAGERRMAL

[2] = biological target: T1, GST-AtPum2 PUM-HD; assay: EMSA; apparent Kd; 200 pM labelled RNA; 10 mM HEPES pH 7.4, 1 mM EDTA, 50 mM KCl, 1 mM DTT, 0.01% BSA, 0.01% Tween 20; room temperature 1 h; 6% native gel run at 4 C; conditions: protein: recombinant; tags: N-terminal GST (pGEX-6P-1); label: 5' 32P; single strand, 19 nt

Binder | Kd [1] [nM] | Kd [2] [nM]
CCAGAAUUUUAUAUAUUCG (ssRNA) [mutant NRE1 (G to U)] | ~354 | 
CCAGAAUUGUAUAUAUUCG (ssRNA) [wildtype NRE1 (hunchback NRE1 BoxB)] |  | 10.6
